Results published in article PMC2757719, “EBNA1-Mediated Recruitment of a Histone H2B Deubiquitylating Complex to the Epstein-Barr Virus Latent Origin of DNA Replication” (PLoS Pathogens, 2009).

B1: GMP synthetase (GMPS), His-tagged, recombinant (enzyme)
chain: not shown
notes: human GMP synthetase, full-length cDNA (in pOTB7) amplified from the start codon to the stop codon and cloned into pFastBac HT B; mass printed as 77 Kda; also called guanosine 5′ monophosphate synthetase; His-tagged GMPS; source: High Five insect cells infected with baculovirus, purified (nickel resin)
B2: EBNA1 truncation mutant 395–641 (domain or fragment)
chain: PRRPPPGRRPFFHPVGEADYFEYHQEGGPDGEPDVPPGAIEQGPADDPGEGPSTGPRGQGDGGRRKKGGWFGKHRGQGGSNPKFENIAEGLRALLARSHVERTTDEGTWVAGVFVYGGSKTSLYNLRRGTALAIPQCRLTPLSRLPFGMAPGPGPQPGPLRESIVCYFMVFLQTHIFAEVLKDAIKDLVMTKPAPTCNIRVTVCSFDDGVDLPPWFPPMVEGAAAEGDDGDDGDEGGDGDEGEEGQE
notes: EBNA1 of Epstein-Barr virus, amino acids 395-641, amplified from pc3oriPEBNA1; also called EBNA1_(395–641); EBNA_(395–641); source: E. coli BL21 pLysS (pET15b), purified (Ni-NTA Agarose)

Tests used:
[1] = molecular target: T1, USP7 (ubiquitin specific protease USP7), full length (human, UniProt Q93009 1-1102); test: co-sedimentation; glycerol gradient sedimentation: 50 µg USP7 and 25 µg GMPS, alone or mixed 1 h at room temperature, on 10%–20% glycerol gradients in 50 mM HEPES pH 7.9, 200 mM NaCl, 0.5 mM EDTA; SW41 34,000 rpm, 18 h, 4°C; markers aldolase 158 kDa, catalase 232 kDa; conditions: both partners purified
T1 construct: Ubiquitin specific protease USP7 (HAUSP), human, full length; calculated mass printed as 130 Kd (135 kDa in the introduction); Monomeric by glycerol gradient sedimentation; also called HAUSP; Herpesvirus Associated Ubiquitin Specific Protease
T1 sequence (Q93009 whole entry): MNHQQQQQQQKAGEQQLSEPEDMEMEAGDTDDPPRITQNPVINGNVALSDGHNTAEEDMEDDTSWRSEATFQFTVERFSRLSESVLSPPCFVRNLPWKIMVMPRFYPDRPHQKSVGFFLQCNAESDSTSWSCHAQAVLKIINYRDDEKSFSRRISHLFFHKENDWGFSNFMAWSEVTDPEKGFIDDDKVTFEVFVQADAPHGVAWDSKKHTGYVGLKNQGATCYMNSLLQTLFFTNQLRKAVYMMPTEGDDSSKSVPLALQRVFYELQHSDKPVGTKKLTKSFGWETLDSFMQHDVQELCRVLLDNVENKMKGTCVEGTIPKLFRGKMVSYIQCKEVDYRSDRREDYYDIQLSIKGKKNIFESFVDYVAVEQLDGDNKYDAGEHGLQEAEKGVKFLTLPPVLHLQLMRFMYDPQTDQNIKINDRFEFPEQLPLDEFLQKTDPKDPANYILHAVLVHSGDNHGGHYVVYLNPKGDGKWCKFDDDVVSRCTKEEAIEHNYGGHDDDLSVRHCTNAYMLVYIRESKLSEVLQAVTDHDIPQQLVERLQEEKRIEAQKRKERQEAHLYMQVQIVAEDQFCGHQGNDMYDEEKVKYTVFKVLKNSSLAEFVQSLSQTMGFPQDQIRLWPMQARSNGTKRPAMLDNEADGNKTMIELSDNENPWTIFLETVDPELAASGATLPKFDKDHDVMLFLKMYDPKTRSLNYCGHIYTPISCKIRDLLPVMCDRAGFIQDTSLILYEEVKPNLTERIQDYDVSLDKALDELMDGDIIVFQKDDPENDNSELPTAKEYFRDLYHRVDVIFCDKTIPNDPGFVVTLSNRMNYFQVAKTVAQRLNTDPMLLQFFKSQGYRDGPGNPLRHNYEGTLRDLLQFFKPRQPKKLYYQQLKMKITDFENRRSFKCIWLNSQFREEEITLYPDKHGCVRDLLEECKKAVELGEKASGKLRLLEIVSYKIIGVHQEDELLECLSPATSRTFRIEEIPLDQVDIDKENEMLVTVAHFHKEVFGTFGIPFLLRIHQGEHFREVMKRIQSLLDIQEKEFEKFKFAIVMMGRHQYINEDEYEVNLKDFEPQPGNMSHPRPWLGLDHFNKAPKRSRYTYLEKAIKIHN

[2] = molecular target: the molecule itself; test: as above
[3] = molecular target: T1, USP7 (ubiquitin specific protease …); test: native gel or EMSA; EBNA1 fragment titrated, preincubated with 10 pmols USP7 or USP7-NTD 10 min at RT before 10 fmoles 32P-labelled DS site 1 DNA (or EBNA1-DNA preformed, then rising USP7, Figure 2C); 20 mM Tris pH 7.5, 200 mM NaCl, 1 µg salmon sperm DNA, 20 µl; 10% polyacrylamide gel; read-out: supershift of the EBNA1-DNA complex; conditions: both partners purified

Row | Binder | stoichiometry N [1] | stoichiometry N [2] | binding result [3]
1 | B1 | 1 | 2 | –
2 | B2 | – | – | binds
